Reference: IntAct's records for PubMed 12782684

B1: Ras-like protein 2 (Saccharomyces cerevisiae), P01120 (parent)
chain: MPLNKSNIREYKLVVVGGGGVGKSALTIQLTQSHFVDEYDPTIEDSYRKQVVIDDEVSILDILDTAGQEEYSAMREQYMRNGEGFLLVYSITSKSSLDELMTYYQQILRVKDTDYVPIVVVGNKSDLENEKQVSYQDGLNMAKQMNAPFLETSAKQAINVEEAFYTLARLVRDEGGKYNKTLTENDNSKQTSQDTKGSGANSVPRNSGGHRKMSNAANGKNVNSSTTVVNARNASIESKTGLAGNQATNGKTQTDRTNIDNSTGQAGQANAQSANTVNNRVNNNSKAGQVSNAKQARKQQAAPGGNTSEASKSGSGGCCIIS
partner: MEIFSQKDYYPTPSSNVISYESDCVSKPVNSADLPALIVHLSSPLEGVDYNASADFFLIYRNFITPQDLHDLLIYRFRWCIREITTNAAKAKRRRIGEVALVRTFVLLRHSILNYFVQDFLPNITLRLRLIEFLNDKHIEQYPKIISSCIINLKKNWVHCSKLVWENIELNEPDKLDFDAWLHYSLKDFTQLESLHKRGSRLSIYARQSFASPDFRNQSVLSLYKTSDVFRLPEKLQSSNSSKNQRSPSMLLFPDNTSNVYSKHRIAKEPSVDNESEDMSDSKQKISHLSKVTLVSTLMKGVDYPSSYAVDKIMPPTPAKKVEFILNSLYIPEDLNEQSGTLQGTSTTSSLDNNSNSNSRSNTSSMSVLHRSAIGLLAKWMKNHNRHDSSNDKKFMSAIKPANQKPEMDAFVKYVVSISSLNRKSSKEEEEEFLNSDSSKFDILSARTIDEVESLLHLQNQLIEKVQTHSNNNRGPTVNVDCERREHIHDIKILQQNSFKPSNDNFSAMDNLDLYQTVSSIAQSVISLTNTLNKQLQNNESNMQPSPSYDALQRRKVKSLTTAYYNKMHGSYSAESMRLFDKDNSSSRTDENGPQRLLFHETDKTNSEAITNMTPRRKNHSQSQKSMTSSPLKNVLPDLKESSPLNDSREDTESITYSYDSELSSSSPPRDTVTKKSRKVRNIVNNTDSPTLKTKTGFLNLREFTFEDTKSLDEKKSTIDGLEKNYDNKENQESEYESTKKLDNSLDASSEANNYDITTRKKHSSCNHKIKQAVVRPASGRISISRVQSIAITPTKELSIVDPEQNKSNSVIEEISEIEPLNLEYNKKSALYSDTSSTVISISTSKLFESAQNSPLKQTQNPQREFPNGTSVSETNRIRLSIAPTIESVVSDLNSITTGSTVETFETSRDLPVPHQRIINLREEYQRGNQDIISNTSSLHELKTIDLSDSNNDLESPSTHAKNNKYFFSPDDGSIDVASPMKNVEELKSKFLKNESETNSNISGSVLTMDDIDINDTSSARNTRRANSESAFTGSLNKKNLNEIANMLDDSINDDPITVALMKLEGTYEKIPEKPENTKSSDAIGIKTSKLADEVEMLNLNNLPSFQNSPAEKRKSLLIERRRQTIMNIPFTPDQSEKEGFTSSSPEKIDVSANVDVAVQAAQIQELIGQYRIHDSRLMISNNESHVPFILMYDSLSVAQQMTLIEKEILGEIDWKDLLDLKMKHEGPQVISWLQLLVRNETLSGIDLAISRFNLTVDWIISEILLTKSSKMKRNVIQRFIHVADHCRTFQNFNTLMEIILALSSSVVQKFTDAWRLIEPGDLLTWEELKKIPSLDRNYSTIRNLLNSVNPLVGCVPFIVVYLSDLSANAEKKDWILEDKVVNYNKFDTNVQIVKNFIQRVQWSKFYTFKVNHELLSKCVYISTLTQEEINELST

Variants of: B1
Details: with lte1_yeast LTE1, P07866

effect of a mutation on the interaction | Variant
disrupting interaction | MPLNKSNIREYKLVVVGGGGVNKSALTIQLTQSHFVDEYDPTIEDSYRKQVVIDDEVSILDILDTAGQEEYSAMREQYMRNGEGFLLVYSITSKSSLDELMTYYQQILRVKDTDYVPIVVVGNKSDLENEKQVSYQDGLNMAKQMNAPFLETSAKQAINVEEAFYTLARLVRDEGGKYNKTLTENDNSKQTSQDTKGSGANSVPRNSGGHRKMSNAANGKNVNSSTTVVNARNASIESKTGLAGNQATNGKTQTDRTNIDNSTGQAGQANAQSANTVNNRVNNNSKAGQVSNAKQARKQQAAPGGNTSEASKSGSGGCCIIS [G22N]

Variants of: B1
Details: with lte1_yeast LTE1, P07866
Remark: another data set of the same source

effect of a mutation on the interaction | Variant
increasing interaction | MPLNKSNIREYKLVVVGGVGVGKSALTIQLTQSHFVDEYDPTIEDSYRKQVVIDDEVSILDILDTAGQEEYSAMREQYMRNGEGFLLVYSITSKSSLDELMTYYQQILRVKDTDYVPIVVVGNKSDLENEKQVSYQDGLNMAKQMNAPFLETSAKQAINVEEAFYTLARLVRDEGGKYNKTLTENDNSKQTSQDTKGSGANSVPRNSGGHRKMSNAANGKNVNSSTTVVNARNASIESKTGLAGNQATNGKTQTDRTNIDNSTGQAGQANAQSANTVNNRVNNNSKAGQVSNAKQARKQQAAPGGNTSEASKSGSGGCCIIS [G19V]

Variants of: B1
Details: with lte1_yeast LTE1, P07866
Remark: another data set of the same source

effect of a mutation on the interaction | Variant
disrupting interaction | MPLNKSNIREYKLVVVGGGGVGKSALTIQLTQSHFVDEYDPTIEDSYRKQVVIDDEVSILDILDTAGQEEYSAMREQYMRNGEGFLLVYSITSKSSLDELMTYYQQILRVKDTDYVPIVVVGNKSDLENEKQVSYQDGLNMAKQMNAPFLETSAKQAINVEEAFYTLARLVRDEGGKYNKTLTENDNSKQTSQDTKGSGANSVPRNSGGHRKMSNAANGKNVNSSTTVVNARNASIESKTGLAGNQATNGKTQTDRTNIDNSTGQAGQANAQSANTVNNRVNNNSKAGQVSNAKQARKQQAAPGGNTSEASKSGSGGSCIIS [C318S]
